This is an account of results in patent US20240117054A1 (DRAGONFLY THERAPEUTICS, published 2024).

Numbering of substitutions follows the chain as printed.

First the molecules themselves.
T1: hFLT3-His fusion protein (human, UniProt P36888 27-541, limits assumed)
T1 construct: Soluble recombinant antigen used for immunisation, ELISA, SPR and BLI binning; also called recombinant hFLT3 protein; not shown: His tag
T1 sequence (looked up): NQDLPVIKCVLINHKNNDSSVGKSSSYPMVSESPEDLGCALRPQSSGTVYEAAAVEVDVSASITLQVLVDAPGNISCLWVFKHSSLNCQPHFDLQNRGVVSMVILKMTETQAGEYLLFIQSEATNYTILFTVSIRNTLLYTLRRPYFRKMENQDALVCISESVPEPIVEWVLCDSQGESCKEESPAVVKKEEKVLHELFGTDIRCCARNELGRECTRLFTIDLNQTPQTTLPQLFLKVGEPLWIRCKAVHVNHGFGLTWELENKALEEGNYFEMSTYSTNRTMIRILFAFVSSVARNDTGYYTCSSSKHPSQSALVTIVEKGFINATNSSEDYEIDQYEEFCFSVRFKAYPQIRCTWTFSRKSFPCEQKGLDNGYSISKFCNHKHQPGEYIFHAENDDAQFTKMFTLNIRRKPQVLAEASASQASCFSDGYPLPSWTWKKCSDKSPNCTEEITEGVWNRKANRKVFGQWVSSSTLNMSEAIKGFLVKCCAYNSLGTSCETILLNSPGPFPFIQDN

T2: human FLT3 (hFLT3) expressed on cells (human, UniProt P36888 27-993)
T2 construct: whole, on cells; One molecule for all cell lines that carry human FLT3; also called RMA-hFLT3; FLT3 on REH cells
T2 sequence (looked up): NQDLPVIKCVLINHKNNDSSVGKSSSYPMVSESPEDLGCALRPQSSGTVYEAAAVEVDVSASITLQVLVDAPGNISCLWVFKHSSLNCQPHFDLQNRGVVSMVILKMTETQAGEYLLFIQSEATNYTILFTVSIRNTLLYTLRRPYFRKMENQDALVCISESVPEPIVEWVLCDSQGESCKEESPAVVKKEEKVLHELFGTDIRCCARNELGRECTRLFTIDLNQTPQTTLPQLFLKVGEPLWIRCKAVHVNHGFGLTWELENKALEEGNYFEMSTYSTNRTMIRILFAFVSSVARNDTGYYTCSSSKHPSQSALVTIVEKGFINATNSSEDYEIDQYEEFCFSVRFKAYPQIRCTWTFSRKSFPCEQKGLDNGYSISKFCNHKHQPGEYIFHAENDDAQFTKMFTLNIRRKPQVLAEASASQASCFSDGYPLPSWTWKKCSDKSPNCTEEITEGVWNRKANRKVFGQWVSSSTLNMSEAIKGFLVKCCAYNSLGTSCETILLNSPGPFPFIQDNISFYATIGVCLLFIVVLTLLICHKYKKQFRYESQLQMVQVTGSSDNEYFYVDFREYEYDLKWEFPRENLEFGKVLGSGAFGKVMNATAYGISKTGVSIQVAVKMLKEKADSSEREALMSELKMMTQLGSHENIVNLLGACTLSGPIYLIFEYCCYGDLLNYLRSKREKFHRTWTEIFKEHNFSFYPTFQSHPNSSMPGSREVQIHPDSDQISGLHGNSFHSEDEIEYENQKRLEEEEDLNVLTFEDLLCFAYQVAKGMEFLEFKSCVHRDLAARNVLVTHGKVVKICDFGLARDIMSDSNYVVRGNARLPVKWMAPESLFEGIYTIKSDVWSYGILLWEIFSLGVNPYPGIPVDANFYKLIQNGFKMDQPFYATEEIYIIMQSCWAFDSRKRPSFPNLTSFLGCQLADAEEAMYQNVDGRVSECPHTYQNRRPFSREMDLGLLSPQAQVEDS

T3: cynomolgus monkey FLT3 (cFLT3) expressed on RMA cells (cynomolgus monkey, UniProt A0A2K5VQ48 27-993)
T3 construct: whole, on cells; also called RMA-cFLT3; cynomolgus FLT3
T3 sequence: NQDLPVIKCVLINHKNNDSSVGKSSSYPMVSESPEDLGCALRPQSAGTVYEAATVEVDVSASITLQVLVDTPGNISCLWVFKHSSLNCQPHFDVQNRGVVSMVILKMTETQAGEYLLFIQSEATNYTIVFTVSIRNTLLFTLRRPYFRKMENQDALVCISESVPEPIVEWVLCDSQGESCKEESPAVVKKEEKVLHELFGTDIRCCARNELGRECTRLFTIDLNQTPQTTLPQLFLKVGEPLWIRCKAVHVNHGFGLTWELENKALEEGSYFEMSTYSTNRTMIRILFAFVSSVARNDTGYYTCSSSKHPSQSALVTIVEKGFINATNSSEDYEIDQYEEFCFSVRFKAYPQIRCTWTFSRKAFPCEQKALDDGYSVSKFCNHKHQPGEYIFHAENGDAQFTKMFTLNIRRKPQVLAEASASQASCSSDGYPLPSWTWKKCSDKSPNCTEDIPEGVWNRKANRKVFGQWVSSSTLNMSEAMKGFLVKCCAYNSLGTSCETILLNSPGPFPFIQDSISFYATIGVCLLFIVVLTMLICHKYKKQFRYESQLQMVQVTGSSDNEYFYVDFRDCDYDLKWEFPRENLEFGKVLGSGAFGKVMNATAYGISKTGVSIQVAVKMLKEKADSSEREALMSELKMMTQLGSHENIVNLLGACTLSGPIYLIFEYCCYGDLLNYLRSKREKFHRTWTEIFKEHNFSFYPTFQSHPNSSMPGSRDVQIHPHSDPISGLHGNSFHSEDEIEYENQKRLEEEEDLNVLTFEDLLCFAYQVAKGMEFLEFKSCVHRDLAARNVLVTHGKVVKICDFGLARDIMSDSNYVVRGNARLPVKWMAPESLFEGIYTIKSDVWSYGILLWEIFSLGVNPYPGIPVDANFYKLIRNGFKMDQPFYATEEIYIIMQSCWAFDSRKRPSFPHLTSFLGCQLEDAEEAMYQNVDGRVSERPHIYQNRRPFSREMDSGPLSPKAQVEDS

B1: 4H2.E3 (antibody, V domains shown)
VH: EVQLQESGPELVKPGASVKMSCKASGYTFTSYLMHWMKQKPGQGLEWIGYINPYSDGIKYNEKFRDKATLTSDKSSNTAYMELSSLTSEDSAVYYCAHSSGYVGYAMDYWGQGTSVTVSS
VL: GIVMTQTTPSVPVTPGESVSISCRSSKSLLHSNGNTYLYWFLQRPGQSPQLLIYRMSNLASGVPDRFSGSGSGTTFTLRISRVEAEDVGVYYCMQHLEYPFTFGSGTKLEIK
notes: Purified murine mAb from a hybridoma subclone
B2: 1A2.A3 (antibody, V domains shown)
VH: EVQLQESGPELVKPGASVKISCKASGYSFTGYYIHWVKQSPEESLEWIGEIYPNTGITTYNQKFTAKATLTVDKSSNTAYMQLKSLTSEDSAVYYCTRWGDYYGRDYWGQGTSVTVSS
VL: DIVLTQSPASLAVSLGQRATISCRASETVDTHGNSFMHWYQQKPGQPPKLLIYRASNLESGIPARFSGSGSRTDFTLTINPVEADDVATYYCQQSNEDPRTFGGGTKLEIK
notes: as for B1
B3: 11F4.B9 (antibody, V domains shown)
VH: B2 VH with S40G, E43K, Y52I, N54S, I57S, T59I, T65K, N77S, M81L, T97E
VL: B2 VL with T28S, T31I, H32Y
notes: as for B1
B4: 12H10.G7 (antibody, V domains shown)
VH: EVQLQESGPELVKPGASVKMSCKASGYTFTRYVMHWVKQRPGQGLEWIGFINPYNDDTKYNEKFKGKATLTSDKSSSTAYMELSSLTSEDSAVYHCARWRQLGSLDSWGQGTTLTVSS
VL: NIVLTQSPASLAVSLGQRATISCRASESVDTYGSSFVHWYQQKPGQPPKLLIYLASNLESGVPARFSGSGSRSDFTLTIDPVEADDAATYYCQQNNEEPWTFGGGTKLEIK
notes: as for B1
B5: 12C9.E5 (antibody, V domains shown)
VH: EVQLQESGAELVRPGASVKLSCKASGYIFTDYEIHWVKQTPVHGLEWIGAIDPETGITAYSQKFKGKATLTTDTSSSTAYMEFRSLTSEDSAVYYCTRGGLLYWGQGTSVTVSS
VL: DVVMTQTPLSLSVTIGQPASISCKSSQSLLYSDGETYLNWLQQRPGQSPKRLMYQVSKLDPGIPDRFSGSGSETDFTLKISRVEAEDLGIYYCLQGTFYPHTFGGGTKLEIK
notes: as for B1
B6: 14A5.E8 (antibody, V domains shown)
VH: EVQLQESGAELVQPGASVRLSCKASGYTFTSYWINWVKQRPGQGLEWIGNIYPGSSIINYNENFKNRATLTVDTSSSTAYMQLSSLTSDDSAVYYCARRVVYLYFDYWGQGTTLTVSS
VL: QIVLTQSPAIMSASPGEKVTMTCSASSSVSYMHWYQQKSGTSPKRWIYDTSKLASGVPARFSGSGSGTSYSLTISSMEAEDAATYYCQQWTSKSPTFGGGTKLEIK
notes: as for B1
B7: 4A4.A3 (antibody, V domains shown)
VH: QVTLKESGPGILQPSQTLSLTCSFSGFSLTTYGMGVGWIRQPSGKGLEWLANIWFNDNKYYNSTLKSRLTISKDTSNNQVFLKISSVDTTDTATYYCAQITTVVGTFDYWGQGSPLTVSP
VL: RIVMTQSPTTMAASPGEKITITCSASSSISSIYLHWYQQKPGFSPKLLIFRTSDLASGVPPRFGGSGSGTSYSLTIGTMEAEDVATYYCQQGSSFPRTFGGGTKLEIK
notes: as for B1

The target of one assay is T1, hFLT3-His fusion protein. In words: SPR, purified murine subclone mAb, hFLT3-His.
Regarding B1, the affinity, expressed as Kd, was 17.6 nM; the koff is 0.001 s⁻¹; the kon worked out at 57000 M⁻¹ s⁻¹.
In the same order, the values of B2 are 8.5 nM, 0.00089 s⁻¹ and 110000 M⁻¹ s⁻¹.
In turn, B3 returned a Kd of 1.7 nM, a koff of 0.00025 s⁻¹ and a kon of 150000 M⁻¹ s⁻¹.
In the same order, the values of B4 are 5.4 nM, 0.00055 s⁻¹ and 100000 M⁻¹ s⁻¹.
In the same order, the values of B5 are 18.7 nM, 0.00063 s⁻¹ and 34000 M⁻¹ s⁻¹.
In the same order, the values of B6 are 15.1 nM, 0.0019 s⁻¹ and 130000 M⁻¹ s⁻¹.
The molecule B7 displayed a Kd of 7.3 nM, a koff of 0.00082 s⁻¹ and a kon of 110000 M⁻¹ s⁻¹.

For another assay, the target named is T2, human FLT3 (hFLT3) expressed on cells. Kind of assay: flow cytometry, purified mAb on RMA-hFLT3 cells.
As for B1, it took 0.66 nM to reach a half-maximal effect (EC50) and the “Max MFI” value is 696 MFI.
The like results for B2 were, in that order, 0.8 nM and 499 MFI.
In the same order, the values of B3 are 0.53 nM and 493 MFI.
The like results for B4 were, in that order, 0.36 nM and 1140 MFI.
On to B6, for which the 50% effective concentration (EC50) was about 2.07 nM and the “Max MFI” value worked out at 415 MFI.
The like results for B7 were, in that order, 0.72 nM and 1020 MFI.

The target of a further assay is T3, cynomolgus monkey FLT3 (cFLT3) …. In words: flow cytometry, purified mAb on RMA-cFLT3 cells.
B1: it took 1.56 nM to reach a half-maximal effect (EC50) and the “Max MFI” value worked out at 3450 MFI.
In the same order, the values of B2 are 1.82 nM and 2830 MFI.
Take B3: the midpoint of the response, the EC50, lay at 1.23 nM and the “Max MFI” value came to 2590 MFI.
The like results for B4 were, in that order, 0.94 nM and 5260 MFI.
B5: the binding result is reported as “no binding”.
B6: the EC50 was determined as 1.25 nM and the “Max MFI” value stood at 1780 MFI.
For B7, the EC50 was found to be 1.07 nM and the “Max MFI” value stood at 5570 MFI.

The next assay concerns the target T2, human FLT3 (hFLT3) expressed on cells. In words: flow cytometry, purified mAb on SEM cells.
As for B1, the EC50 was found to be 7.57 nM and the “Max MFI” value was 1510 MFI.
In the same order, the values of B2 are 5.47 nM and 1360 MFI.
The like results for B3 were, in that order, 2.43 nM and 1140 MFI.
For B4, the EC50 was 3.2 nM and the “Max MFI” value was 2830 MFI.
The like results for B6 were, in that order, about 1.07 nM and 1960 MFI.
Consider B7, for which the concentration giving a half-maximal response (EC50) was 3.29 nM and the “Max MFI” value is 2350 MFI.
